{
  "source": "the DeepSol protein solubility set",
  "data": [
    {"test": "soluble on expression in E. coli; label from the status in PepcDB or PDB records", "values": [
      {"sequence": "MGSDKIHHHHHHMKNKVGIMYDNISGNTGDVAIGISLRKIMKELKVDFDEILLNNIDVLKYNTVIIGGGHLLRENSDFFYDKFKLRGPNILNSVGVVGNPNDLQYLEEYKYVTFRSEGDRKKAGYLNKKSSVVPCTTMLLDDLQDFPIHIKRPAIGVHLIPNIFSKEEEGLFVKWASKLPYTIYFIPITHYNYDYIYMSKLSQRISNSRVLPIMKPLEIFTFIGKLDYLITCSLHGSIFSYIHNVPFILMEQEKSRFFLEDRGLQGYLFSNLKEIIGLTEKVINNPLDYSNLIVKDKKILEEHVENIKQIVPNNSTYILSKECTESDEITQLNLQNGILQINLSKLTYELEAYKKEIKGINFRLKDEESKHMYYKKELKKIYRSRGWKALKKFYSLKDFISKKINGA", "soluble on expression in E. coli": "not soluble"},
      {"sequence": "MGHHHHHHSHMEAPPVTMMPVTGGTINMMEYLLQGSVLDHSLESLIHRLRGLCDNMEPETFLDHEMVFLLKGQQASPFVLRARRSMDRAGAPWHLRYLGQPEMGDKNRHALVRNCVDIATSENLTDFLMEMGFRMDHEFVAKGHLFRKGIMKIMVYKIFRILVPGNTDSTEALSLSYLVELSVVAPAGQDMVSDDMKNFAEQLKPLVHLEKIDPKRLM", "soluble on expression in E. coli": "soluble"},
      {"sequence": "SSGHKCYPWDLQDRYAQDKSVVNKMQQKYWETKQAFIKATGKKEDEHVVASDADLDAKLELFHSIQRTCLDLSKAIVLYQKRICFLSQEENELGKFLRSQGFQDKTRAGKMMQATGKALCFSSQQRLALRNPLCRFHQEVETFRHRAISDTWLTVNRMEQCRTEYRGALLWMKDVSQELDPDLYKQMEKFRKVQTQVRLAKKNFDKLKMDVCQKVDLLGASRCNLLSHMLATYQTTLLHFWEKTSHTMAAIHESFKGYQPYEFTTLKSLQDPMKKLVEKEEKKKINQQESTDAAVQEPSQLISLEEENQRKESSSFKTEDGKSILSALDKGSTHTACSGPIDELLDMKSEEGACLGPVAGTPEPEGADKDDLLLLSEIFNASSLEEGEFSKEWAAVFGDGQVKEPVPTMALGEPDPKAQTGSGFLPSQLLDQNMKDLQASLQEPAKAASDLTAWFSLFADLDPLSNPDAVGKTDKEHELLNA", "soluble on expression in E. coli": "soluble"},
      {"sequence": "MNICMRNGYEQFSLTSPGTSDLEIGGSFWKDEPDTKYLCLDSPVEQRQHQPPMAVCAGCRLEISDRYFLRVNPNLEFHAQCLKCVQCSRPLDENQTAFVKNGQTYCRDDYRRLFTTRCSRCHGDFDKTDLVMRAGPQNVFHLNCFACVACEKRLQTGEEFQIKNNSLYCRSDCRGLDNPDTSASVPDYSKLNNNNNNDNNNSSSNFDEDEWDEERSTLTSLDNNTSSPLGSPKSDGVRTPLFGHHNSGSGGSTSSCGKKKKDKQATRVRTVLNENQLKILRDCYSINSRPDATLKERLVEMTGLSARVIRVWFQNKRCKDKKRQIQITENRLNSEREEVLNRVRVNGIGPLMVQPATPHIDNTLGGPIDIQHFAQWNGTPPPPPPQYGNPMMFNSPSTFDVSVILAPVAPNVTSPSEALGPLGASVFPHFSPQHAPFTATSHDISSPAPCGE", "soluble on expression in E. coli": "not soluble"},
      {"sequence": "MELETEIIVDKVDVENPILITSFPGIGLVGTIATAHYIMELKLESIGIVDSRLLPPVASLYEGVILPPVRVYQSADLGFVLIHSDVPIIPQAAIDMSKKIVQFAAEINARRVYSFAGVATFEDKKRVFAAATSKELLEEVKDHAEIFKTGTISGIAGSIMNECVAAKMPGIVLLGETLGFNPDPRAAASLIEAVNKIMNWNVSVEKLLKEAEMIEAQMQKLAEQARMQEERKEEFPMYG", "soluble on expression in E. coli": "soluble"},
      {"sequence": "MSVLSIIACEMLEDELVYVLSKDQNAVRLILVENRQCFRFVRKLKSGNCQARIFPPERISFFIKQMNRPASMKIPNFLLKFPFFGKIHENMKEKNRETITVVVNILKLGLHADCDLLKSEIYRNMKEMVEFSDGILIFYGNCGRPLRGLEAEFKDFNCPLYFLEDEKGNIVDDCISIALGGNDNYAEVMQSGNGTGMIYLTPMWASSWKEMRMEPGDTSDFNVSFLKRHYRKVVKISNEISMGSEFDKNVLNYARTFDMSIIEMKGSMEIAMKSYMNARNGICKKDPIQKSSLEHHHHHH", "soluble on expression in E. coli": "not soluble"},
      {"sequence": "MSGIITILGLGAGELDQLTMGVYRKIKEADHLFVRTKEHPVIEELEKEGVQYTSFDAVYEAHDTFEIVYETIANKLLEQAEGTEIIYAVPGHPLVAERTVQLLLEKGEVSNVEVRIEGGQSFLDPMFASLKIDPIEGFQLLDATSFERGQLELRQHLIFCQVYDAFVASDVKLTLMEMLPDDYEVYIVTAAGTSFEQVKKVPLYMLDHETELNNLTSVYMPPVQERASLYQQFDVLREIIAELRGPNGCPWDKKQTHQSLKKYLIEEAYEVLEAIDEEDDDHLVEELGDILLQVMLHAQIGEDEGWFSIDDIIRTLSEKMVRRHPHVFGNTDVNSADEVIANWEEIKKQEKGFVKESVLNGVPKSLPQLLRAYEIQKKAGKVGFDWVDVQPMIEKALEEWQEFQQEVTNMDEEKMLGEFGDLLFAFVNIARHYKIDPEEALRSTNEKFTGRFLYMEAKVAEMNKEMKDLSLEQLDVLWEEAKQTER", "soluble on expression in E. coli": "not soluble"},
      {"sequence": "GSHMTIEQMVDRLLSYPERTKMQILAPIVSGKKGTHAKTLEDIRKQGYVRVRIDREMRELTGDIELEKNKKHSIDVVVDRIIIKDGIAARLADSLETALKLADGKVVVDVIGEGELLFS", "soluble on expression in E. coli": "soluble"},
      {"sequence": "MDVENEQILNVNPADPDNLSDSLFSGDEENAGTEEVKNEINGNWISAYSINEARINAKAKRRLRKNSSRDSGRGDSVSDSGSDALRSGLTVPTSPKGRLLDRRSRSGKGRGLPKKGGAGGKGVWGTPGQVYDVEEVDVKDPNYDDDQENCVYETVVLPLDERAFEKTLTPIIQEYFEHGDTNEVAEMLRDLNLGEMKSGVPVLAVSLALEGKASHREMTSKLLSDLCGTVMSTTDVEKSFDKLLKDLPELALDTPRAPQLVGQFIARAVGDGILCNTYIDSYKGTVDCVQARAALDKATVLLSMSKGGKRKDSVWGSGGGQQSVNHLVKEIDMLLKEYLLSGDISEAEHCLKELEVPHFHHELVYEAIIMVLESTGESTFKMILDLLKSLWKSSTITVDQMKRGYERIYNEIPDINLDVPHSYSVLERFVEECFQAGIISKQLRDLCPSRGRKRFVSEGDGGRLKPESY", "soluble on expression in E. coli": "soluble"},
      {"sequence": "SLGGEVSGKGPAVAAREARDPLPDAGASPAPSRCCRRRSSVAFFAVCDGHGGREAAQFAREHFWGFIKKQKGFTSSEPAKVCAAIRKGFLACHLAMWKKLAEWPKTMTGLPSTSGTTASVVIIRGMKMYVAHVGDSGVVLGIQDDTKDDFVRAVEVTQDHKPELPKERERIEGLGGSVMNKSGVNRVVWKRPRLTHNGPVRRSTVIDQIPFLAVARALGDLWSYDFFSGEFVVSPEPDTSVHTLDPQKHKYIILGSDGLWNMIPPQDAISMCQDQEEKKYLMGEHGQSCAKMLVNRALGRWRQRMLRADNTSAIVICISPEVDNQGNFTNEDELYLNLTDGPSYNSQETCVMTPSPCSTPPVKSLEEDPWPRVNSKDHIPALVRSNAFSENFLEVSAEIARENVQGVVIPSKDPEPLEEN", "soluble on expression in E. coli": "soluble"},
      {"sequence": "SLPLPLVVAVLDSEDEKEGRTCAIVAFGFRYIHPASGAQVDVPEGYVTDFASIPAPVRGLFPPFGRHAKAAVLHDWLYLIGEPGQRAFADRIFLDAMDDLRVSLVRRSIMHRAVRLAGGGAYAKEASTWARAFGNWRTGDRHTPPFTAESRYQAHWPVPPRPDFRP", "soluble on expression in E. coli": "not soluble"},
      {"sequence": "MSLDKPVIKISTENVDLIYRVGDNGRLYQSYLGKRLNHATDIAHLPQGSEAYLTHGMEDYFEPAIHIVHNDGNPSTLLKYVSHTRNQVSPGVDEVVITMQDDKYPVTVKLHYVAYQKENLIKTFTEISHREKKPVQLHKYASSMLHLNRANYFLTEFSGDWASEAHVKEQPLEFGKKTIDTKLGARANMFCSPFFQLALDGKSEENQGEVLVGTLGWTGNFSFVFEVDNKNELRVISGINPYASEYSLKPNEIFRTPDFYFTYSFKGKGQASRNFHDWARKYQVKDGNQTRMTLLNNWEATYFDFDEAKLVKLMDDAVELGVDMFLLDDGWFANKYPRSGDHQGLGDWDETADKLPHGIGYLTEAAKKKGIKFGIWIEPEMVNPKSELYEKHKDWVIHLPNRDEYYFRNQLVLDLSNPKVQDYVFGVVDNLMTKYPDIAFFKWDCNSPITNIYSVYLKDKQSHLYIDYVRGLYNVLERVKAKYPDLPMMLCSGGGGRSDYEALSYFTEFWPSDNTDPIERLFIQWGFSQVFPAKTMCAHVTTWNKNSSVKFRTDVAMMCKLGFDIKLADMSKDDETYCRTAVQNYNRLKPVVLEGDMYRLVSPYGSNHTSTMYVGKDKDKAVVFAFDIHPRYAEKILPVRLQGLDADKMYRVKEINLMPGANSSLSGNGEVFSGEFLMNVGLNLFTTQQLNSRVIEVVAEGHHHHHH", "soluble on expression in E. coli": "soluble"},
      {"sequence": "MEGLGRSCLWLRRELSPPRPRLLLLDCRSRELYESARIGGALSVALPALLLRRLRRGSLSVRALLPGPPLQPPPPAPVLLYDQGGGRRRRGEAEAEAEEWEAESVLGTLLQKLREEGYLAYYLQGGFSRFQAECPHLCETSLAGRAGSSMAPVPGPVPVVGLGSLCLGSDCSDAESEADRDSMSCGLDSEGATPPPVGLRASFPVQILPNLYLGSARDSANLESLAKLGIRYILNVTPNLPNFFEKNGDFHYKQIPISDHWSQNLSRFFPEAIEFIDEALSQNCGVLVHCLAGVSRSVTVTVAYLMQKLHLSLNDAYDLVKRKKSNISPNFNFMGQLLDFERSLRLEERHSQEQGSGGQASAASNPPSFFTTPTSDGAFELAPT", "soluble on expression in E. coli": "soluble"},
      {"sequence": "MGSDKIHHHHHHMNPKMIRSLKAFTRTVELNSMSAAANELHMTVSAISQQLQRLENDNGISLFHRNTRSLSLTEAGQVFYQSCLDMLAIAAKNQERWDQLTNQPQGQIKIIAPVGFGGGLLSEPLKQLQHEFANVSFQLHMTDEPIDLITAGADLAIRIGPLADSTLYARHLADWHMVPCIAAEHPAAENSIKSFDDLPEGCFIGHIPSLPNKDFPKPKVLLNNMQTVVQLTLDGVGYALLPQPEIKHYIESGRLLRLLPEWEGSPYSVHAVLPIKDNIPAKTERTIEVLSHFFHRL", "soluble on expression in E. coli": "not soluble"},
      {"sequence": "MSLNEQRFFRFLRERIGLDVESVGAPMVERALRQRCVAAGAMDLDDYWLRLQQSADEQQALIEAVIVPETWFFRYPESFTALASLAHKRLAQLAGARPLRLLSLPCSTGEEPYSLAMALFDAGMAPGAFLVDGMDISPSSVAKAGQAVYGRNAFRGSELGFRERYFDALDEGHRLHERVRQQVSLRVGNVLDPALASRDGLYDFVFCRNLLIYFDVPTQQRVFEVLKRLLHPQGVLFIGPAEGSLLARMGMRPLGIAQSFAYVRHEGDSAPLAAAPAQTAKRAFTTLPAPVYPQPSVPLPRSRRVLPVAARPARAREHSHEGASELLAGIARLANAGASEQARSECQRYLSQYPPSAQVYYWLGLLSDTEGDAQQALSHYRKALYLEPQHPEALVHLAALLAAQGDLAGARRLQERAARAGRESEREGHHHHHH", "soluble on expression in E. coli": "soluble"},
      {"sequence": "MKIKIFIITSLIILTSVSCRRNVFNPSIPNRTQFVEDPIANLSIPSKDAAVEVIPVESIYKTGQTSLIYNWYIHFFDFNGKYYLTARDKCSYDSANKTMIITNNSYYNLLEIDVNDNFYMKEIRTNIDSSIPDDNRIINAFTKIVNGEAYTNADTIFIQDGGKYYSSKNIITWTEISQIPSDASKKEATDQYKIPITAQNGKTYTYVYASGAREFSISRLSDRMKQLAKRLETKFDFKEEDFNNHHMFDIGLNENGSSNPDFRLNPTNYLNNDTNYVYMGATDAAGQLWLLPVKKNGKDYLVRLPEHGGPELYIISDLQNDMNTYQTKAQESLTKALSLAASGGDTSAIEDACYESILNDANYKANKYFLDVIDKMGAKVNFGTTVYATSSKPITHYVIDIVDIQKD", "soluble on expression in E. coli": "not soluble"},
      {"sequence": "MKQTFITLGEGLTDLFEFMTMIEYNHQRIDKIIYFHSPQAENKKSSVAIIMNPTTGNHFQAFYIMINAIKYPYPDSNKKFQMINDCAEKFDIPILGIDVQPPQAFHDLSLYYNYLISVLRLQKWIPELQLEHHHHHH", "soluble on expression in E. coli": "not soluble"},
      {"sequence": "MNVCFFPRLKEFILNQDWNDPKSQLQQCCLTLRTEGKEPDIPLYKTLQTVGPSHARTYTVAVYFKGERIGCGKGPSIQQAEMGAAMDALEKYNFPQMAHQKRFIERKYRQELKEMRWEREHQEREPEEAEDIKK", "soluble on expression in E. coli": "soluble"}
    ]}
  ]
}
